Test results published in US10704030B2, “P450-BM3 variants with improved activity” (Codexis, Inc., priority 2015, dated 2020).
Positions count from the first letter of the chain named. Numbers in names are those of the source.

B1: Variant 18: P450-BM3 variant of SEQ ID NO:16: K32R; C48S; Y52F; I95P; I176V; L216Y; D232H; E349K; M491A; N574T; E619D; D722S; A767T (protein)
chain: MTIKEMPQPKTFGELKNLPLLNTDKPVQALMRIADELGEIFKFEAPGSVTRFLSSQRLIKEACDESRFDKNLSQALKFARDFLGDGLVTSWTHEPNWKKAHNILLPSFSQQAMKGYHAMMVDIAVQLVQKWERLNADEHIEVSEDMTRLTLDTIGLCGFNYRFNSFYRDQPHPFIVSMVRALDEVMNKLQRANPDDPAYDENKRQCQEDIKVMNDYVDKIIADRKARGEQSHDLLTQMLNGKDPETGEPLDDGNISYQIITFLIAGHETTSGLLSFALYFLVKNPHVLQKVAEEAARVLVDPVPSYKQVKQLKYVGMVLNEALRLWPTAPAFSLYAKEDTVLGGEYPLKKGDEVMVLIPQLHRDKTIWGDDVEEFRPERFENPSAIPQHAFKPFGNGQRACIGQQFALHEATLVLGMMLKHFDFEDHTNYELDIKETLTLKPEGFVVKAKSKKIPLGGIPSPSTEQSAKKVRKKAENAHNTPLLVLYGSNAGTAEGTARDLADIAMSKGFAPQVATLDSHAGNLPREGAVLIVTASYNGHPPDNAKQFVDWLDQASADEVKGVRYSVFGCGDKTWATTYQKVPAFIDETLAAKGAENIADRGEADASDDFEGTYEEWRDHMWSDVAAYFNLDIENSEDNKSTLSLQFVDSAADMPLAKMHGAFSTNVVASKELQQPGSARSTRHLEIELPKEASYQEGDHLGVIPRNYEGIVNRVTARFGLSASQQIRLEAEEEKLAHLPLAKTVSVEELLQYVELQDPVTRTQLRTMAAKTVCPPHKVELEALLEKQAYKEQVLAKRLTMLELLEKYPACEMKFSEFIALLPSIRPRYYSISSSPRVDEKQASITVSVVSGEAWSGYGEYKGIASNYLAELQEGDTITCFISTPQSEFTLPKDPETPLIMVGPGTGVAPFRGFVQARKQLKEQGQSLGEAHLYFGCRSPHEDYLYQEELENAQSEGIITLHTAFSRMPNQPKTYVQHVMEQDGKKLIELLDQGAHFYICGDGSQMAPAVEATLMKSYADVHQVSEADARLWLQQLEEKGRYAKDVWAG
modifications: P450_BM3
notes: C48S; Y52F; I95P; I176V; L216Y; D232H; E349K; M491A; N574T; E619D; D722S; A767T
B2: Variant 19: P450-BM3 variant of SEQ ID NO:16: C48S; Y52F; I95P; Q111R; I176V; L216Y; D232H; P347T; M491A; N574T; D722S (protein)
chain: B1 chain with R32K, Q111R, P347T, K349E, D619E, T767A
modifications: P450_BM3
notes: Y52F; I95P; Q111R; I176V; L216Y; D232H; P347T; M491A; N574T; D722S

What was measured:
Type in all cases: biochemical
[1] = Validation of generalist properties: oxidation of loratadine by lyophilized P450-BM3 variant, UPLC-MS; settings: [Loratadine] = 1 mM; for TON: TON = [substrate]*% conversion/[P450]
In short: (§1)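 Lyophilized lysate of E. coli-expressed P450-BM3 variant (stock standardized to 12 μM heme) was incubated 24 h at 30 °C with 1 or 2 mM substrate, 1.0 mM NADP+, 25 mM glucose, 0.5 mg/mL glucose dehydrogenase and 5% DMSO in 100 mM potassium phosphate. Acetonitrile-quenched samples were analyzed by UPLC-MS (positive ESI).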

[2] = Validation of generalist properties: oxidation of gefitinib by lyophilized P450-BM3 variant, UPLC-MS; settings: [Gefitinib] = 1 mM; for TON: TON = [substrate]*% conversion/[P450]; for FIOPC (F12): fold improvement over parent MCYP-1.2-F12
In short: as §1

[3] = Validation of generalist properties: oxidation of imatinib by lyophilized P450-BM3 variant, UPLC-MS; settings: [Imatinib] = 1 mM; for TON: TON = [substrate]*% conversion/[P450]; for FIOPC (F12): fold improvement over parent MCYP-1.2-F12
In short: as §1

[4] = Validation of generalist properties: oxidation of diclofenac by lyophilized P450-BM3 variant, UPLC-MS; settings: [Diclofenac] = 1 mM; for TON: TON = [substrate]*% conversion/[P450]; for FIOPC (F12): fold improvement over parent MCYP-1.2-F12
In short: as §1

Molecule	% Conv. [1]	TON [1]	FIOPC (F12) ([1]; fold improvement over parent MCYP-1.2-F12)	% Conv. [2]	TON [2]	FIOPC (F12) [2]	% Conv. [3]	TON [3]	FIOPC (F12) [3]	% Conv. [4]	TON [4]	FIOPC (F12) [4]	FIOPC (F02) ([1]; fold improvement over parent MCYP-P1.2-F02)
B1	++ (5.01-10.00)	‡‡‡ (5001-10000)	* (0.0-3.0)	++++ (15.01-20.00)	‡‡‡‡ (10000-50000)	**** (10.01-15.00)	+++ (10.01-15.00)	‡‡‡ (5001-10000)	** (3.01-5.0)	++++ (15.01-20.00)	‡‡‡‡ (10000-50000)	* (0.0-3.0)	
B2	+++ (10.01-15.00)	‡‡‡ (5001-10000)		++++ (15.01-20.00)	‡‡‡‡ (10000-50000)	**** (10.01-15.00)	+++ (10.01-15.00)	‡‡‡ (5001-10000)	** (3.01-5.0)	++++ (15.01-20.00)	‡‡‡‡ (10000-50000)	* (0.0-3.0)	* (0.0-3.0)
